These results are taken from patent US20050008615A1.

Sequence of native human IL-18 (SEQ ID NO:1) (Q14116 37-193): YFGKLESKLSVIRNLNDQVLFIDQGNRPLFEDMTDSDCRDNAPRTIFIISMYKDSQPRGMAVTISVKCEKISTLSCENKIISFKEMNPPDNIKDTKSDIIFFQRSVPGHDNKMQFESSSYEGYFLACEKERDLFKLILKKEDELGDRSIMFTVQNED

One experiment deals with human IL-18 binding protein (human) (UniProt O95998). In words: SPR (BIAcore). (SPR reads the build-up and loss of mass on a sensor chip optically.)
The Kd is the constant that tells how readily two partners part at equilibrium. Lower therefore signals higher affinity. In the case of “human IL-18 C38S, C68D, D157C (SEQ ID NO:8) (from UniProt Q14116 37-192) (ligand)”, the Kd was 0.134 nM.

The substance “human IL-18 C38S, C68D, D157C (SEQ ID NO:8) monopegylated at C157 with 20K PEG (from UniProt Q14116 37-192) (ligand)” had a dissociation constant (Kd) of 5.53 nM.

Regarding “human IL-18 C38S, C68D, D157C (SEQ ID NO:8) monopegylated at C157 with 30K PEG (from UniProt Q14116 37-192) (ligand)”, the Kd worked out at 4.91 nM.

For the substance “human IL-18 C38S, C68D, D157C (SEQ ID NO:8) monopegylated at C157 with 40K PEG (from UniProt Q14116 37-192) (ligand)”, the Kd is 23.6 nM.

“human IL-18 C38S, C68D, L144C (SEQ ID NO:7) (from UniProt Q14116 37-193) (ligand)” registered a dissociation constant (Kd) of 0.101 nM.

For “human IL-18 C38S, C68D, L144C (SEQ ID NO:7) monopegylated at C144 with 20K PEG (from UniProt Q14116 37-193) (ligand)”, the Kd came out at 1.16 nM. Compared with the last substance, the Kd is about 11-fold higher.

As to “human IL-18 C38S, C68D, L144C (SEQ ID NO:7) monopegylated at C144 with 30K PEG (from UniProt Q14116 37-193) (ligand)”, the dissociation constant Kd came out at 1.51 nM.

With “human IL-18 C38S, C68D, L144C (SEQ ID NO:7) monopegylated at C144 with 40K PEG (from UniProt Q14116 37-193) (ligand)”, the Kd is 4.71 nM.

For “human IL-18 C38S, C68S, D157C (SEQ ID NO:10) (from UniProt Q14116 37-192) (ligand)”, the Kd turned out to be 0.163 nM.

As for “human IL-18 C38S, C68S, D157C (SEQ ID NO:10) monopegylated at C157 with 20K PEG (from UniProt Q14116 37-192) (ligand)”, the Kd was 1.27 nM. Against the preceding substance, the Kd is about 7.8-fold higher.

“human IL-18 C38S, C68S, D157C (SEQ ID NO:10) monopegylated at C157 with 30K PEG (from UniProt Q14116 37-192) (ligand)” yielded a dissociation constant Kd of 1.29 nM.

Substance “human IL-18 C38S, C68S, L144C (SEQ ID NO:9) (from UniProt Q14116 37-193) (ligand)” gave a Kd of 0.156 nM. This Kd lies about 8.3-fold lower than the previous one.

On to “human IL-18 C38S, C68S, L144C (SEQ ID NO:9) monopegylated at C144 with 20K PEG (from UniProt Q14116 37-193) (ligand)”, for which the Kd came to 1.56 nM.

In turn, “human IL-18 C38S, C68S, L144C (SEQ ID NO:9) monopegylated at C144 with 30K PEG (from UniProt Q14116 37-193) (ligand)” had a Kd of 1.51 nM.

Substance “native human IL-18 (SEQ ID NO:1) (from UniProt Q14116 37-193) (ligand)” came in with a dissociation constant (Kd) of 0.135 nM.

The target is the same in a further experiment. Description: IGEN electrochemiluminescence immunoassay of the IL-18:IL-18BP complex; 125 ng/ml of each.
Substance “C144 20K PEG (human IL-18 L144C substitution mutant pegylated at C144 with 20K PEG, Table 7) (ligand)” registered an ECL units of 154000 ECL units.

Substance “C144 non-PEG (human IL-18 substitution mutant with L144C, Table 7) (ligand)” yielded an ECL units of 561000 ECL units.

“C157 20K PEG (human IL-18 D157C substitution mutant pegylated at C157 with 20K PEG, Table 7) (ligand)” returned an ECL units of 63500 ECL units.

Regarding “C157 non-PEG (human IL-18 substitution mutant with D157C, Table 7) (ligand)”, the ECL units was found to be 377000 ECL units.

For “human IL-18 C38S (SEQ ID NO:4) (from UniProt Q14116 37-193) (ligand)”, the ECL units is 746000 ECL units.

“human IL-18 C38S (SEQ ID NO:4) monopegylated at C68 with 20K PEG (from UniProt Q14116 37-193) (ligand)” yielded an ECL units of 49100 ECL units.

The next experiment has the same target. Description: IGEN electrochemiluminescence immunoassay of the IL-18:IL-18BP complex (ruthenium 16D10 anti-IL-18 mAb, biotinylated mAb 36 anti-IL-18BP); 125 ng/ml of each.
In the case of “native human IL-18 (SEQ ID NO:1) (from UniProt Q14116 37-193) (ligand)”, the ECL units turned out to be 1.1e+06 ECL units.
